Laboratory results as given in the Immune Epitope Database (IEDB).

Key:
Assay in all cases: IEDB peptide-MHC binding, purified MHC/competitive/radioactivity; filed as Kd, often an IC50 or EC50 that approximates it; ≥ and ≤ were set here for values at or beyond the usual limits of such assays
HLA-A*33:01 = biological target: HLA-A*33:01
HLA-A*31:01 = biological target: HLA-A*31:01
HLA-A*03:01 = biological target: HLA-A*03:01
HLA-A*68:01 = biological target: HLA-A*68:01
HLA-A*11:01 = biological target: HLA-A*11:01
[1] = source organism: Vaccinia virus WR
[2] = source organism: Dengue virus 4 Philippines/H241/1956
[3] = source organism: SARS coronavirus Tor2
[4] = source organism: Dengue virus 1 Brazil/97-11/1997
[5] = source organism: Dengue virus 2 Jamaica/1409/1983
[6] = source organism: Mammarenavirus machupoense
[7] = source organism: Dengue virus 2 Peru/IQT2913/1996
[8] = source organism: Vaccinia virus Copenhagen
[9] = source organism: Dengue virus 3 Martinique/1243/1999
[10] = source organism: Mammarenavirus brazilense

Sequence	Kd (HLA-A*33:01; [1])	Kd (HLA-A*31:01; [1])	Kd (HLA-A*03:01; [1])	Kd (HLA-A*68:01; [1])	Kd (HLA-A*11:01; [1])	other results
AALFMYYAKR	837 nM	16.8 nM	312 nM	33.1 nM	178 nM	
AIKILTGFRK						Kd (HLA-A*03:01; [2]): 103 nM; Kd (HLA-A*11:01; [2]): 1760 nM
AITPTIEDDK	≥ 42600 nM	≥ 47900 nM	487 nM	6640 nM	115 nM	
ALLSTDGNK						Kd (HLA-A*33:01; [3]): ≥ 77700 nM; Kd (HLA-A*31:01; [3]): 10200 nM; Kd (HLA-A*03:01; [3]): 52.5 nM; Kd (HLA-A*68:01; [3]): ≥ 23700 nM; Kd (HLA-A*11:01; [3]): 494 nM
ATKIIALNK						Kd (HLA-A*33:01; [3]): ≥ 77700 nM; Kd (HLA-A*31:01; [3]): 840 nM; Kd (HLA-A*03:01; [3]): 1360 nM; Kd (HLA-A*68:01; [3]): 15900 nM; Kd (HLA-A*11:01; [3]): 334 nM
ATMLEYVRY	≥ 77700 nM	3410 nM	1700 nM	≥ 29400 nM	23.5 nM	
ATTVITPMMR						Kd (HLA-A*31:01; [4]): 125 nM; Kd (HLA-A*68:01; [4]): 368 nM; Kd (HLA-A*11:01; [4]): 141 nM
AVHDFFKFR						Kd (HLA-A*33:01; [3]): 273 nM; Kd (HLA-A*31:01; [3]): 4.9 nM; Kd (HLA-A*03:01; [3]): 7140 nM; Kd (HLA-A*68:01; [3]): 11.3 nM; Kd (HLA-A*11:01; [3]): 7.56 nM
AVILQNAWK						Kd (HLA-A*11:01; [5]): 128 nM
AVLMHKGKR						Kd (HLA-A*31:01; [5]): 64.7 nM
CVDIPGIPK						Kd (HLA-A*33:01; [3]): ≥ 37900 nM; Kd (HLA-A*31:01; [3]): ≥ 10000 nM; Kd (HLA-A*03:01; [3]): 149 nM; Kd (HLA-A*68:01; [3]): 102 nM; Kd (HLA-A*11:01; [3]): 19.9 nM
DFYDFAVSK						Kd (HLA-A*33:01; [3]): 9.36 nM; Kd (HLA-A*31:01; [3]): 12400 nM; Kd (HLA-A*03:01; [3]): 4110 nM; Kd (HLA-A*68:01; [3]): 56.9 nM; Kd (HLA-A*11:01; [3]): 8940 nM
DIICEDAMY	≥ 20200 nM	≥ 77900 nM	≥ 78000 nM	4550 nM	≥ 77900 nM	
DLIVTFRER	14.8 nM	509 nM	12700 nM	19.8 nM	8140 nM	
DSIPISELSR	25.5 nM	4140 nM	≥ 44900 nM	12.3 nM	986 nM	
EIITGNKVK	≥ 77700 nM	≥ 77900 nM	≥ 78000 nM	233 nM	1200 nM	
EMVDELVTRK	≥ 70000 nM	≥ 70000 nM	≥ 70100 nM	1210 nM	8710 nM	
EWMLIAAKMK						Kd (HLA-A*33:01; [6]): 49 nM; Kd (HLA-A*31:01; [6]): 1260 nM; Kd (HLA-A*03:01; [6]): 5950 nM; Kd (HLA-A*68:01; [6]): 3530 nM; Kd (HLA-A*11:01; [6]): ≥ 24100 nM
FTDISMSLYK	4210 nM	9320 nM	55.9 nM	24.9 nM	8.84 nM	
FVASFRLFAR						Kd (HLA-A*33:01; [3]): 14.1 nM; Kd (HLA-A*31:01; [3]): 6.64 nM; Kd (HLA-A*03:01; [3]): 94.2 nM; Kd (HLA-A*68:01; [3]): 0.106 nM; Kd (HLA-A*11:01; [3]): 50 nM

Sequence	Kd (HLA-A*33:01; [1])	Kd (HLA-A*31:01; [1])	Kd (HLA-A*03:01; [1])	Kd (HLA-A*68:01; [1])	Kd (HLA-A*11:01; [1])	other results
FVCKHSMVDR						Kd (HLA-A*33:01; [7]): 122 nM; Kd (HLA-A*31:01; [7]): 117 nM; Kd (HLA-A*68:01; [7]): 1050 nM
GILKKLSSIK	≥ 70000 nM	5480 nM	13.9 nM	≥ 20100 nM	375 nM	
GLLFRRLTSR						Kd (HLA-A*31:01; [4]): ≥ 53700 nM; Kd (HLA-A*03:01; [4]): 170 nM
GLTTHCTKLR	4210 nM	511 nM	5180 nM	12100 nM	4630 nM	
GSTAEQLSK	≥ 77700 nM	≥ 77900 nM	307 nM	≥ 43000 nM	14 nM	
GVIADYNYK						Kd (HLA-A*33:01; [3]): 4910 nM; Kd (HLA-A*31:01; [3]): 126 nM; Kd (HLA-A*03:01; [3]): 23.8 nM; Kd (HLA-A*68:01; [3]): 72 nM; Kd (HLA-A*11:01; [3]): 5.97 nM
HINALEYIIK	200 nM	1520 nM	117 nM	35.9 nM	87.9 nM	
IAVSTANIFR						Kd (HLA-A*33:01; [2]): 1050 nM; Kd (HLA-A*68:01; [2]): 9.46 nM
IFAFIDFSK						Kd (HLA-A*33:01; [8]): 42.6 nM; Kd (HLA-A*31:01; [8]): 251 nM; Kd (HLA-A*03:01; [8]): 78.2 nM; Kd (HLA-A*68:01; [8]): 8.56 nM; Kd (HLA-A*11:01; [8]): 20.5 nM
IFREIASSMK	467 nM	425 nM	198 nM	3470 nM	1570 nM	
IITPVVFYR	6.62 nM	1.08 nM	59.2 nM	0.0181 nM	0.322 nM	
IMVASDVCK	3480 nM	991 nM	150 nM	408 nM	369 nM	
ISARALKAY	16400 nM	9600 nM	542 nM	2470 nM	334 nM	
ISIMIEEVMR						Kd (HLA-A*68:01; source organism: Dengue virus 1 Singapore/S275/1990): 82.3 nM
ITNITTDSR						Kd (HLA-A*68:01; [9]): 26.3 nM
ITPDDGLGLR	9910 nM	11600 nM	≥ 70100 nM	69.2 nM	16200 nM	
ITVDDDGTMR						Kd (HLA-A*68:01; [9]): 77.3 nM
ITVNPIVTEK						Kd (HLA-A*03:01; [5]): 24.1 nM; Kd (HLA-A*68:01; [5]): 154 nM; Kd (HLA-A*11:01; [5]): 69.2 nM
IVNNQESNK						Kd (HLA-A*33:01; [8]): ≥ 77700 nM; Kd (HLA-A*31:01; [8]): 1180 nM; Kd (HLA-A*03:01; [8]): 132 nM; Kd (HLA-A*68:01; [8]): 111 nM; Kd (HLA-A*11:01; [8]): 147 nM
KCSDHYICLK						Kd (HLA-A*33:01; [10]): 8220 nM; Kd (HLA-A*31:01; [10]): 482 nM; Kd (HLA-A*03:01; [10]): 276 nM; Kd (HLA-A*68:01; [10]): ≥ 70100 nM; Kd (HLA-A*11:01; [10]): 1890 nM
